According to patent publication US20140179900A1:

Assays:
[1] = target: monoclonal antibody 12G6H5 (“Frida”); assay: inhibition ELISA FIG. 18a, low peptide, 2.5 ng Frida, coat p4073
[2] = target: monoclonal antibody 12G6H5 (“Frida”); assay: inhibition ELISA FIG. 18a, high peptide, 2.5 ng Frida, coat p4073
[3] = target: monoclonal antibody 12G6H5 (“Frida”); assay: inhibition ELISA FIG. 18c, low peptide, 2.5 ng Frida, coat p4073
[4] = target: monoclonal antibody 12G6H5 (“Frida”); assay: inhibition ELISA FIG. 18c, high peptide, 2.5 ng Frida, coat p4073
[5] = target: monoclonal antibody 12G6H5 (“Frida”); assay: inhibition ELISA FIG. 10a, 20 µg peptide, 2.5 ng Frida, coat p4073
[6] = target: monoclonal antibody 12G6H5 (“Frida”); assay: inhibition ELISA FIG. 10a, 2 µg peptide, 2.5 ng Frida, coat p4073
[7] = target: monoclonal antibody 12G6H5 (“Frida”); assay: inhibition ELISA FIG. 10b, 20 µg peptide, 2.5 ng Frida, coat p4073
[8] = target: monoclonal antibody 12G6H5 (“Frida”); assay: inhibition ELISA FIG. 10b, 2 µg peptide, 2.5 ng Frida, coat p4073

Row | ELISA signal with competitor [1] | ELISA signal with competitor [2] | ELISA signal with competitor [3] | ELISA signal with competitor [4] | Binder | other results
1 | 2.17 | 1.59 | – | – | CGFKPAHVFIDWLQSLS [p4479 C-…] | –
2 | 2 | 1.42 | – | – | CFGFPAHVSFDWLQSLS [p4476 C-…] | –
3 | 2.23 | 1.21 | – | – | CFKPAHVFIDWLQSLS [p4478 C-…] | –
4 | – | – | 0.635 | 0.096 | CFGFPSHIIIDWLQSLS [p4432 C-…] | –
5 | 1.45 | 0.179 | – | – | CFGFPAHVFIDWLQSLN [p4474 C-…] | –
6 | – | – | – | – | CFGFPAHVYIDWLQSLS [p4362 C-…] | ELISA signal with competitor [5]: 0.15; ELISA signal with competitor [6]: 0.75
7 | 0.712 | 0.093 | 0.942 | 0.101 | FGFPEHLLVDFLQSLSC [p1208 …-C] | –
8 | 2.21 | 1.43 | – | – | CFGFPAHFSIDWLQSLS [p4475 C-…] | –
9 | – | – | 1.84 | 1.67 | CAAAPAHLLVDAAQAAA [p4437 C-…] | –
10 | 0.537 | 0.094 | 0.554 | 0.088 | CFGFPEHLLVDFLQSLS [p4073 C-…, original CETP epitope] | ELISA signal with competitor [5]: 0.1; ELISA signal with competitor [6]: 0.44; ELISA signal with competitor [7]: 0.15; ELISA signal with competitor [8]: 0.64
11 | – | – | – | – | CFGFPAHVFIDWLQSLS [p4361 C-…] | ELISA signal with competitor [5]: 0.16; ELISA signal with competitor [6]: 0.82
12 | 0.808 | 0.116 | – | – | CFGFPEHVFIDWLQSLS [p4477 C-…] | –
13 | 0.551 | 0.156 | – | – | CFGFPQHLFTDWLQSLS [p4481 C-…] | –
14 | – | – | 1.74 | 1.46 | CAAFPAHLLADAAQALA [p4434 C-…] | –
15 | – | – | 1.63 | 1.69 | CAAFAAHLLADFLQAAA [p4436 C-…] | –
16 | 0.521 | 0.103 | – | – | CDFGFPAHVFIDWLQSLS [p4480 C-…] | –
17 | – | – | – | – | CFGFPSHLIIDWLQSLS [p4325 C-…] | ELISA signal with competitor [7]: 0.1; ELISA signal with competitor [8]: 0.42
18 | – | – | 1.11 | 0.672 | CFGFPSHLIIEWLQSLS [p4433 C-…] | –
19 | – | – | 1.28 | 1.97 | CAAFPAHAAADFLQALA [p4435 C-…] | –
